From US20210040174A1 come the findings set out here.

For assay [1], the target named is his-tagged C-terminal fragment from CA125 (UniProt Q8WXI7). The assay can be described thus: SPR (BiaCore T200): fusion protein captured on Protein A chip, his-tagged C-terminal CA125 fragment as analyte; one MCB domain (MCB domain-1X, SEQ ID: 4).
The target is the same in assay [2]. Description: SPR (BiaCore T200): fusion protein captured on Protein A chip, his-tagged C-terminal CA125 fragment as analyte; two MCB domains (MCB domain-2X, SEQ ID: 2).

As to “MCB domain-1X fusion protein (single MCB domain of mesothelin linked to the N-terminus of the human IgG1 Fc heavy chain) (Fc fusion)”, the Kd in assay [1] worked out at 0.0652 nM.

In assay [2], “MCB domain-2X fusion protein (two MCB domains of mesothelin linked via a single spacer unit to the N-terminus of the human IgG1 Fc heavy chain) (Fc fusion)” gave a Kd of 0.0149 nM.
